T1: RCD1-SRO-TAF4 (RST) domain from Radical-Induced Cell Death1, RCD1-RST_(499-572) (UniProt Q8RY59 499-572)
T1 sequence (looked up): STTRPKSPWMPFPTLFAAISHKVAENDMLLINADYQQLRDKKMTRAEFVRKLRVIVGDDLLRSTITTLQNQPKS


Tests used:
[1] = molecular target: RCD1-SRO-TAF4 (RST) domain from Radical-Induced Cell Death1, RCD1-RST_(499-572) (UniProt Q8RY59); assay: ITC
[2] = molecular target: T1, RCD1-SRO-TAF4 (RST) domain from …; assay: ITC

Molecule | binding result [2] | other results
D-ANAC013_(254-274) peptide, D-enantiomer (from UniProt F4IED2 254-274) |  | fold difference in Kd against L-ANAC013 [1]: 500 fold
D-ANAC046_(319-338) peptide, D-enantiomer (from UniProt Q9SQQ6 319-338) |  | fold difference in Kd against L-ANAC046 [1]: 15 fold
D-DREB2A_(255-272) peptide, D-enantiomer (from UniProt O82132 255-272) |  | fold difference in Kd against L-DREB2A [1]: 72 fold
NLEEDMYLEINDLMEPEPEPT (peptide, UniProt F4IED2 254-274, looked up) [L-ANAC013_(254-274) peptide] | binds | 
SKSACDGLDDLIFWEDLYTS (peptide, UniProt Q9SQQ6 319-338, looked up) [L-ANAC046_(319-338) peptide] | binds | 
SSDMFDVDELLRDLNGDD (peptide, UniProt O82132 255-272, looked up) [L-DREB2A_(255-272) peptide] | binds | 

— paper doi:10.1101/2024.02.23.581681 (bioRxiv, 2024)
